± gives the standard error. For some assays here: Variants at the floor of the assay were thinned out.
B1: glmS ribozyme (parent)
chain: AUAAAAGCGCCAGAACUACAGAAAUGUAGUUGACGAGGAGGAGGUUUAUCGAAUUUUCGGCGGAUGCCUCCAAA

Assays:
Conditions in all cases: with glucosamine-6-phosphate
glucosamine-6-phosphate [1] = variants of: B1; experiment: kcat; higher = faster cleavage; RNA array
Outline: (§1)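 On sequenced MiSeq chips, barcoded ribozyme variants were made in situ by E. coli RNA polymerase and followed at 37 °C through a hybridised Cy3 probe. Glucosamine-6-phosphate was flowed in at 40 μM to 10 mM in HEPES/KCl/Mg(OAc)2 buffer. Exponential fits to normalised per-tile medians gave kobs, and weighted Michaelis–Menten fits gave kcat and KM.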

glucosamine-6-phosphate [2] = variants of: B1; experiment: KM; higher = weaker cofactor use; RNA array
Outline: as §1

glucosamine-6-phosphate [3] = variants of: B1; experiment: self-cleavage kobs at 40 uM GlcN6P; higher = faster cleavage; RNA array
Outline: as §1

glucosamine-6-phosphate [4] = variants of: B1; experiment: self-cleavage kobs at 160 uM GlcN6P; higher = faster cleavage; RNA array
Outline: as §1

glucosamine-6-phosphate [5] = variants of: B1; experiment: self-cleavage kobs at 640 uM GlcN6P; higher = faster cleavage; RNA array
Outline: as §1

glucosamine-6-phosphate [6] = variants of: B1; experiment: self-cleavage kobs at 2500 uM GlcN6P; higher = faster cleavage; RNA array
Outline: as §1

glucosamine-6-phosphate [7] = variants of: B1; experiment: self-cleavage kobs at 10000 uM GlcN6P; higher = faster cleavage; RNA array
Outline: as §1

Variant	kcat (glucosamine-6-phosphate [1]) [s⁻¹]	KM (glucosamine-6-phosphate [2]) [µM]	self-cleavage kobs at 40 uM GlcN6P (glucosamine-6-phosphate [3]) [s⁻¹]	self-cleavage kobs at 160 uM GlcN6P (glucosamine-6-phosphate [4]) [s⁻¹]	self-cleavage kobs at 640 uM GlcN6P (glucosamine-6-phosphate [5]) [s⁻¹]	self-cleavage kobs at 2500 uM GlcN6P (glucosamine-6-phosphate [6]) [s⁻¹]	self-cleavage kobs at 10000 uM GlcN6P (glucosamine-6-phosphate [7]) [s⁻¹]
A15U U69C	0.000652 ± 0.00018	1120 ± 510	5.12e-05 ± 1.2e-05	8.72e-05 ± 1.3e-05	0.000203 ± 2.7e-05	0.000443 ± 7.7e-05	0.000677 ± 0.00011
C11G A48G G59C	0.000345 ± 1.4e-05	1870 ± 150			8.84e-05 ± 2.1e-05	0.0002 ± 3.7e-05	0.000286 ± 7.5e-05
A6C A53C	2.09e-05 ± 4.9e-07	1550 ± 150		< 1e-05	< 1e-05		
A12G G59C	6.79e-05 ± 1.4e-05		< 1e-05			7.69e-05 ± 2.4e-05	5.86e-05 ± 1.4e-05
U31G A64G	0.0127 ± 0.0021	1620 ± 370	0.000372 ± 5.2e-05	0.000974 ± 0.00016	0.00368 ± 0.00071	0.00704 ± 0.0013	0.0116 ± 0.0017
A52G U54C	0.00197 ± 7e-05	2700 ± 150	2.55e-05 ± 1.1e-05	0.000111 ± 1.8e-05	0.000379 ± 5.7e-05	0.000985 ± 0.00015	0.00153 ± 0.00019
G26U C70A	0.000113 ± 4.5e-05			7.79e-05 ± 2.3e-05	6.27e-05 ± 1.2e-05	0.0002 ± 4e-05	0.000106 ± 1.9e-05
U57G C68U	3.41e-05 ± 1.5e-05		< 1e-05		3.46e-05 ± 1.4e-05	6.22e-05 ± 1.2e-05	1.92e-05 ± 8.6e-06
G13C A53C	2.72e-05 ± 1.4e-06	802 ± 260	< 1e-05	< 1e-05			2.49e-05 ± 1.2e-05
G29C G41C	1.23e-05 ± 4.8e-07	2750 ± 290		< 1e-05	< 1e-05		
C11U G40U	0.000224 ± 2.2e-05	3980 ± 910			2.87e-05 ± 7.5e-06	0.000111 ± 3.6e-05	0.000159 ± 1.6e-05
C10A G60U	0.000974 ± 0.00015	1660 ± 470	3.82e-05 ± 7.9e-06	8.97e-05 ± 1.6e-05	0.000243 ± 3.1e-05	0.000514 ± 8.6e-05	0.000886 ± 8.3e-05
G44U U55C	9.04e-05 ± 3.7e-06	8390 ± 750		< 1e-05			4.92e-05 ± 1.3e-05
A53U U57A	0.000262 ± 3e-05	2870 ± 600			5.19e-05 ± 8e-06	0.000113 ± 1.4e-05	0.000215 ± 3e-05

Reference: the supplement of paper PMC7125110
